Results: article PMC9065035, “Structural basis for the synthesis of the core 1 structure by C1GalT1” (Nature Communications, 2022)
Blank lines part the entries; values can stand above or below the substance they belong to.

Tests used:
[1] = test system: CC(=O)N[C@H]1[C@@H](O[C@H](C)[C@H](NC(=O)[C@H](CC(=O)O)NC(=O)[C@@H]2CCCN2C(=O)[C@H](C)N)C(=O)N[C@@H](CCCNC(=N)N)C(=O)N2CCC[C@H]2C(N)=O)O[C@H](CO)[C@H](O)[C@@H]1O; assay: purified protein, by the assay type; details: 500 µM UDP-Gal, 37.0 °C
[2] = test system: CC(=O)N[C@H]1[C@@H](O[C@H](C)[C@H](NC(=O)[C@H](CC(=O)O)NC(=O)[C@H](C)NC(=O)[C@@H](N)Cc2ccc(O)cc2)C(=O)NCC(=O)N2CCC[C@H]2C(=O)N[C@@H](Cc2ccccc2)C(N)=O)O[C@H](CO)[C@H](O)[C@@H]1O; assay: purified protein, by the assay type; details: other: acceptor substrate varied (P1–P7 12.5–500 µM; APDT*RP/APDS*RP 12.5–1000 µM; α-O-methyl-GalNAc up to 2 mM), 500 µM UDP-Gal, 500 nM enzyme, 25 mM Tris pH 7.5, 150 mM NaCl, 50 µM MnCl2, 1 mg/ml BS, 37.0 °C
[3] = test system: CC(=O)N[C@H]1[C@@H](O[C@H](C)[C@H](NC(=O)[C@H](C)NC(=O)[C@H](C)NC(=O)[C@@H]2CCCN2)C(=O)NCC(=O)N2CCC[C@H]2C(=O)N[C@@H](Cc2ccc(O)cc2)C(N)=O)O[C@H](CO)[C@H](O)[C@@H]1O; assay: purified protein, by the assay type; details: other: acceptor substrate varied (P1–P7 12.5–500 µM; APDT*RP/APDS*RP 12.5–1000 µM; α-O-methyl-GalNAc up to 2 mM), 500 µM UDP-Gal, 500 nM enzyme, 25 mM Tris pH 7.5, 150 mM NaCl, 50 µM MnCl2, 1 mg/ml BS, 37.0 °C
[4] = biological target: Drosophila melanogaster C1GalT1, residues T43-Q388 (DmC1GalT1^T43-Q388) (Drosophila melanogaster) (UniProt Q7K237); assay: ITC; 2 mM glycopeptide titrated into the enzyme (60 uM for APDT*RP, 50 uM for P4/P7); excess of UDP: 25 mM TRIS pH 7.5, 150 mM NaCl, 1 mM UDP, 1 mM MnCl2; 20 °C; one-site model; duplicate
[5] = biological target: DmC1GalT1^T43-Q388 (Drosophila melanogaster C1GalT1, residues T43-Q388) (Drosophila melanogaster); assay: ITC; under an excess of UDP: 2 mM (glyco)peptide titrated into DmC1GalT1^T43-Q388 (60 µM for APDT*RP and APDTRP, 50 µM for P4/P7); 20 °C; 25 mM TRIS pH 7.5, 150 mM NaCl, 1 mM UDP, 1 mM MnCl2; one-site model; duplicate
[6] = biological target: DmC1GalT1^T43-Q388 (Drosophila melanogaster C1GalT1, residues T43-Q388) (Drosophila melanogaster) (UniProt Q7K237); assay: ITC; with an excess of UDP: 2 mM (glyco)peptide titrated into 60 μM (APDT*RP, APDTRP) or 50 μM (P4/P7) enzyme; 25 mM TRIS pH 7.5, 150 mM NaCl, 1 mM UDP, 1 mM MnCl2; 20 °C; one-site model; low Wiseman c (c < 1)
[7] = biological target: DmC1GalT1^T43-Q388 (Drosophila melanogaster C1GalT1, residues T43-Q388) (Drosophila melanogaster) (UniProt Q7K237)
[8] = other: acceptor substrate varied (P1–P7 12.5–500 µM; APDT*RP/APDS*RP 12.5–1000 µM; α-O-methyl-GalNAc up to 2 mM), 500 nM enzyme, 25 mM Tris pH 7.5, 150 mM NaCl, 50 µM MnCl2, 1 mg/ml BS

Substance: DmC1GalT1^T43-Q388 (Drosophila melanogaster)
Km [1, 8]: 195 µM
kcat [1, 8]: 0.0583 s⁻¹
Km [2]: 139.6 µM
Km [3]: 50.06 µM

Substance: DmC1GalT1^S73-Q388 (Drosophila melanogaster)
Km ([1]; other: construct S73-Q388 (Hi5 cells), APDT*RP varied 12.5 µM–1 mM, fit ± standard error, n = 2, pH 7.5): 322.6 µM

The next lines start with the values.

Kd [4]: 173 µM
Substance: APDT*RP glycopeptide (GalNAc on Thr)

Kd [5]: 174 µM
stoichiometry N [5]: 0.88
Substance: APDT*RP glycopeptide (* = GalNAc on the Thr)

fold by which UDP binds the enzyme more strongly than this peptide [6]: 9.5 fold
stoichiometry N [6]: 1
Km^app of the glycopeptide as acceptor substrate (UDP-Glo glycosylation kinetics, 500 nM enzyme, 500 μM UDP-Gal) [7]: 195 µM
Substance: APDT*RP glycopeptide (MUC1 tandem repeat epitope with alpha-GalNAc on Thr)
